{
  "source": "patent US20210063414A1",
  "about": "“METHODS FOR PREVENTING AND/OR TREATING BONE LOSS CONDITIONS BY MODULATING IRISIN” (Dana-Farber Cancer Institute, Inc., priority 2018, published 2021)",
  "molecules": {"B1": {"name": "irisin: secreted cleaved form of FNDC5; recombinant human/mouse irisin with C-terminal his tag produced in HEK293 cells (protein)", "chain": "DSPSAPVNVTVRHLKANSAVVSWDVLEDEVVIGFAISQQKKDVRMLRFIQEVNTTTRSCALWDLEEDTEYIVHVQAISIQGQSPASEPVLFKTPREAEKMASKNKDEVTMKE", "modifications": "left off: small tags and cut ends", "notes": "secreted cleaved form of FNDC5; recombinant human/mouse irisin with C-terminal his tag produced in HEK293 cells"}},
  "experiment_in_all_cases": "Crosslinking/co-immunoprecipitation/mass spectrometry (TMT quantitative proteomics) to identify irisin receptors",
  "format_in_all_cases": "binding",
  "key": {"[1]": {"biological_target": "T1, MLO-Y4 cell surface proteins (Mus musculus, UniProt O35143)", "T1 construct": "endogenous in cells; host or cells: MLO-Y4", "T1 sequence (O35143 26-106)": "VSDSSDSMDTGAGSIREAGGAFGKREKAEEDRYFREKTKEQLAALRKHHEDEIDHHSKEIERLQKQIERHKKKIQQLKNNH", "details": "co-precipitated protein Atpif1 (ATIF1_MOUSE)", "method_in_brief": "(§1)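 Relative protein abundance came from 6-plex TMT MS3 quantitation on an Orbitrap Fusion Lumos, after in-gel trypsin digestion of Coomassie-stained SDS-PAGE lanes. Input was a Ni-NTA pulldown (250 mM imidazole elution) of lysates from murine MLO-Y4 cells. These cells were treated on ice with His-tagged irisin or adipsin (10 nM, 20 min) in serum-free medium, then crosslinked with 1.5 mM DTSSP for 30 min.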"}, "[2]": {"biological_target": "T2, MLO-Y4 cell surface proteins (Mus musculus, UniProt Q6ZPE2)", "T2 construct": "endogenous in cells; host or cells: MLO-Y4", "T2 sequence (Q6ZPE2 whole entry)": "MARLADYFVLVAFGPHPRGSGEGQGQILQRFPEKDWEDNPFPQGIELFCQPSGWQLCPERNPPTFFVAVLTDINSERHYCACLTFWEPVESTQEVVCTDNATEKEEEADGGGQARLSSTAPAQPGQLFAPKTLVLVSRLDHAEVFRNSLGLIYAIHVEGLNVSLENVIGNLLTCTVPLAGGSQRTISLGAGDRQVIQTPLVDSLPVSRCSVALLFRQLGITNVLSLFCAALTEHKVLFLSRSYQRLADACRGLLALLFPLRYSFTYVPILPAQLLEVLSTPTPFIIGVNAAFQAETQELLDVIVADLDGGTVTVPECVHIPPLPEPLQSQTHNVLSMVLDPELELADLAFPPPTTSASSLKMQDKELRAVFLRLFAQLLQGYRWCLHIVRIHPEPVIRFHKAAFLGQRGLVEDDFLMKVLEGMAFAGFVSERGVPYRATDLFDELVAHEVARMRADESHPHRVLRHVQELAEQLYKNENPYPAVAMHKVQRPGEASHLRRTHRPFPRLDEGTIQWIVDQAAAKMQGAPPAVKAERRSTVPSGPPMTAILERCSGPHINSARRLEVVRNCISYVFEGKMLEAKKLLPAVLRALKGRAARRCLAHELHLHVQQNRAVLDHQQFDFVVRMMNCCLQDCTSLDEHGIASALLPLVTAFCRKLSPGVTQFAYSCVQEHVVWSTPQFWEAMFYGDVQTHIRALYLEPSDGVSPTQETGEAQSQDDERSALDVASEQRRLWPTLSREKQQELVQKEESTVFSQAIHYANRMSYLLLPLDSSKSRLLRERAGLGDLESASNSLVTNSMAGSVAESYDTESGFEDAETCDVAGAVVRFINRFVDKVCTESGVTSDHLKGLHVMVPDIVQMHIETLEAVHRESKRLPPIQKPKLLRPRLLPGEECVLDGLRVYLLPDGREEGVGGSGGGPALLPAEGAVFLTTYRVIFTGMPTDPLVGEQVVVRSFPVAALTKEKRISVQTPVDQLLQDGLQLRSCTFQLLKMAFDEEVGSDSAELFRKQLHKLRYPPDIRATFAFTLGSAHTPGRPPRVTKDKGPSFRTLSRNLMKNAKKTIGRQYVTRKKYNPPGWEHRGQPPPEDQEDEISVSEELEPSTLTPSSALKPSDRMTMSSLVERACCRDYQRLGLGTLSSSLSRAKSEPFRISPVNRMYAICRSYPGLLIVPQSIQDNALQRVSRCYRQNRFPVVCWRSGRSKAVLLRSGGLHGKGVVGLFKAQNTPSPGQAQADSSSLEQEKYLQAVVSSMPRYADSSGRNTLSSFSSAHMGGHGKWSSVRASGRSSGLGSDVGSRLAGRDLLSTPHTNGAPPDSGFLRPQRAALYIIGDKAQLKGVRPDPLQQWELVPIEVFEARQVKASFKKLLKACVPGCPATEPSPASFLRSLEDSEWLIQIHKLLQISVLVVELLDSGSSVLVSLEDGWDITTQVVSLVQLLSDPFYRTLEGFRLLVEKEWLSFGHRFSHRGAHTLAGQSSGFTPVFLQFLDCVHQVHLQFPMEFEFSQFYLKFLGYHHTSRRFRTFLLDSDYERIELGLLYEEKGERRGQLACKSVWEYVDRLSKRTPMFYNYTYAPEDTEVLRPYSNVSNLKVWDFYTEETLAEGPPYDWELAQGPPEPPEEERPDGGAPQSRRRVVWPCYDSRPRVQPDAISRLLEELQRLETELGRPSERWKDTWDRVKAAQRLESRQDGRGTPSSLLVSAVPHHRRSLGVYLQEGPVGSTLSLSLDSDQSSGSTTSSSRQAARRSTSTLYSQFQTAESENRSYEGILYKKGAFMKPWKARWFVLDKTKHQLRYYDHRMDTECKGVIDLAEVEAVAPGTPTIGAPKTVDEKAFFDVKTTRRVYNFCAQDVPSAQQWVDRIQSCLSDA", "details": "co-precipitated protein Sbf1 (MTMR5_MOUSE)", "method_in_brief": "as §1"}, "[3]": {"biological_target": "T3, MLO-Y4 cell surface proteins (Mus musculus, UniProt Q6NWW9)", "T3 construct": "endogenous in cells; host or cells: MLO-Y4", "T3 sequence (Q6NWW9 whole entry, the tested form may be a part)": "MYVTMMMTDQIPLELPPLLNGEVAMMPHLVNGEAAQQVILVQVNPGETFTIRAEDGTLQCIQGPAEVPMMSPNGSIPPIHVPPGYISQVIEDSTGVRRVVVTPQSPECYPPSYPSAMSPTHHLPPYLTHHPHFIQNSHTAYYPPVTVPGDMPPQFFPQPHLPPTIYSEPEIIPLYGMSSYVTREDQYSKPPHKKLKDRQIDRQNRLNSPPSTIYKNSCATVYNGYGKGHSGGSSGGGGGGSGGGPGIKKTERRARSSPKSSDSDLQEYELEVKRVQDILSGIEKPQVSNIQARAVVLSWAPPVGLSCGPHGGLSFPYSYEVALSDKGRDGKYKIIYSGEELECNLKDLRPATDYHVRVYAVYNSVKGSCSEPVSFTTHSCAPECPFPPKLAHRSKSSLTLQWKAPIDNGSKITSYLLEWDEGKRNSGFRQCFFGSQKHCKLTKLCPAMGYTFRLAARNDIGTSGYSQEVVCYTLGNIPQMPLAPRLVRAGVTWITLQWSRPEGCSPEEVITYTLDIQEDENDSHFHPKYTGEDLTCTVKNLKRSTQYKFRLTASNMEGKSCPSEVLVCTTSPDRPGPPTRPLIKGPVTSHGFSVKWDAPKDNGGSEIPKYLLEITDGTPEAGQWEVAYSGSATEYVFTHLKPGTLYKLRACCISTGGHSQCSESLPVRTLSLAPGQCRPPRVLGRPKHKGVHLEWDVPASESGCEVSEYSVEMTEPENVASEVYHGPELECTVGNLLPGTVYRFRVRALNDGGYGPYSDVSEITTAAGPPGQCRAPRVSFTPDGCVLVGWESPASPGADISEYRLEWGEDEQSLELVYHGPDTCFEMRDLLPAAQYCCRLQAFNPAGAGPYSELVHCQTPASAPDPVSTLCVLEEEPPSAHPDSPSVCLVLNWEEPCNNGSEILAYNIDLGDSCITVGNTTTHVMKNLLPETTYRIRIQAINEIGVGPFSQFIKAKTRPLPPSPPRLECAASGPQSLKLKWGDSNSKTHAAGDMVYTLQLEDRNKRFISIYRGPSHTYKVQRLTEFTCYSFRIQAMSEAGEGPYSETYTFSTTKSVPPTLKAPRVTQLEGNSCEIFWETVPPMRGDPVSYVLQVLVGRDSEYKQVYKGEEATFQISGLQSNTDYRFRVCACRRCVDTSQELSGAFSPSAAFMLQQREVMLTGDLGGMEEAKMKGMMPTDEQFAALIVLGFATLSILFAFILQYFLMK", "details": "TMT ratio, Fndc3b Fibronectin type III domain-containing protein 3B", "method_in_brief": "as §1"}, "[4]": {"biological_target": "T4, MLO-Y4 cell surface proteins (Mus musculus, UniProt P35762)", "T4 construct": "endogenous in cells; host or cells: MLO-Y4", "T4 sequence (P35762 1-236)": "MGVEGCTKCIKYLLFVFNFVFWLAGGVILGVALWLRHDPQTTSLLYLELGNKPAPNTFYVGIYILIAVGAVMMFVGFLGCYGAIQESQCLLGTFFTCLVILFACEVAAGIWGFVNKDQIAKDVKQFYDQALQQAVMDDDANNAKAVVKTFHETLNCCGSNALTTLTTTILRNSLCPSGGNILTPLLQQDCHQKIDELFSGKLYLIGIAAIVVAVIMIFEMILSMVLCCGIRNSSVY", "details": "TMT ratio, Cd81 CD81 antigen", "method_in_brief": "as §1"}, "[5]": {"biological_target": "T5, MLO-Y4 cell surface proteins (Mus musculus, UniProt Q921N7)", "T5 construct": "endogenous in cells; host or cells: MLO-Y4", "T5 sequence (Q921N7 78-253)": "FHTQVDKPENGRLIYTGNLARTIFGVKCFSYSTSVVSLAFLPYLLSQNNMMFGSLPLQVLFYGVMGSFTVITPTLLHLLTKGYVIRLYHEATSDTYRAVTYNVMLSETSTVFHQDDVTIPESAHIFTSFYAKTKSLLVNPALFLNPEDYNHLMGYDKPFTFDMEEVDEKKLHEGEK", "details": "co-precipitated protein Tmem70 (TMM70_MOUSE)", "method_in_brief": "as §1"}, "[6]": {"biological_target": "T6, MLO-Y4 cell surface proteins (Mus musculus, UniProt Q9CYR0)", "T6 construct": "endogenous in cells; host or cells: MLO-Y4", "T6 sequence (Q9CYR0 17-152)": "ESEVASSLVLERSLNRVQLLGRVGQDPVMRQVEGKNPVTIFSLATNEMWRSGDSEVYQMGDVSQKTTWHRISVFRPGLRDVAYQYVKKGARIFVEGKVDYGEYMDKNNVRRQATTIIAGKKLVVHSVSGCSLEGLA", "details": "co-precipitated protein Ssbp1 (SSBP_MOUSE)", "method_in_brief": "as §1"}},
  "data": [
    {"molecule": "B1", "values": [
      {"measurement": "TMT signal-to-noise ratio", "setting": "[1]", "result": 229.372},
      {"measurement": "irisin/adipsin TMT signal-to-noise ratio", "setting": "[1]", "result": 0.505},
      {"measurement": "TMT signal-to-noise ratio", "setting": "[2]", "result": 37.3228},
      {"measurement": "irisin/adipsin TMT signal-to-noise ratio", "setting": "[2]", "result": 0.525},
      {"measurement": "irsin/adipsin", "setting": "[3]", "result": 2.88},
      {"measurement": "irsin/adipsin", "setting": "[4]", "result": 4.05},
      {"measurement": "TMT signal-to-noise ratio", "setting": "[5]", "result": 49.6598},
      {"measurement": "irisin/adipsin TMT signal-to-noise ratio", "setting": "[5]", "result": 0.562},
      {"measurement": "TMT signal-to-noise ratio", "setting": "[6]", "result": 244.754},
      {"measurement": "irisin/adipsin TMT signal-to-noise ratio", "setting": "[6]", "result": 0.566}
    ]}
  ]
}
